Measurements reported in article PMC11461180, “Interaction with IP6K1 supports pyrophosphorylation of substrate proteins by the inositol pyrophosphate 5-InsP7” (Bioscience Reports, 2024).

Target: V5-tagged IP6K1 (human, UniProt Q92551-1 1-441)
Assay: cell-based or functional assay

Chain of V5-tagged IP6K1 (Q92551 whole entry): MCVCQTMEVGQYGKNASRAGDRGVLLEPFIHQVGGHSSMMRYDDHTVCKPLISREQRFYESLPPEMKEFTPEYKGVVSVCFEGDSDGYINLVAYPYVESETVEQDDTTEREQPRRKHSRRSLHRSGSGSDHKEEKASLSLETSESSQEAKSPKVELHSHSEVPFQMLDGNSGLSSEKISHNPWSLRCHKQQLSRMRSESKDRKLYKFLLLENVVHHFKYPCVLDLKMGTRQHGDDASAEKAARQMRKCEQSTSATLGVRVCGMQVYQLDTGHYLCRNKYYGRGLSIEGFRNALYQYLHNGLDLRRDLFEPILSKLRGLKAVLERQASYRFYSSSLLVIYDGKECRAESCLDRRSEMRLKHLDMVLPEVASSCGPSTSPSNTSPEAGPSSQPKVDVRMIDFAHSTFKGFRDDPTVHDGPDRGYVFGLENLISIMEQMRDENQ

B1: myc epitope-tagged AP3B1 (natural protein, human, UniProt O00203-1 1-1094, looked up)
chain: MSSNSFPYNEQSGGGEATELGQEATSTISPSGAFGLFSSDLKKNEDLKQMLESNKDSAKLDAMKRIVGMIAKGKNASELFPAVVKNVASKNIEIKKLVYVYLVRYAEEQQDLALLSISTFQRALKDPNQLIRASALRVLSSIRVPIIVPIMMLAIKEASADLSPYVRKNAAHAIQKLYSLDPEQKEMLIEVIEKLLKDKSTLVAGSVVMAFEEVCPDRIDLIHKNYRKLCNLLVDVEEWGQVVIIHMLTRYARTQFVSPWKEGDELEDNGKNFYESDDDQKEKTDKKKKPYTMDPDHRLLIRNTKPLLQSRNAAVVMAVAQLYWHISPKSEAGIISKSLVRLLRSNREVQYIVLQNIATMSIQRKGMFEPYLKSFYVRSTDPTMIKTLKLEILTNLANEANISTLLREFQTYVKSQDKQFAAATIQTIGRCATNILEVTDTCLNGLVCLLSNRDEIVVAESVVVIKKLLQMQPAQHGEIIKHMAKLLDSITVPVARASILWLIGENCERVPKIAPDVLRKMAKSFTSEDDLVKLQILNLGAKLYLTNSKQTKLLTQYILNLGKYDQNYDIRDRTRFIRQLIVPNVKSGALSKYAKKIFLAQKPAPLLESPFKDRDHFQLGTLSHTLNIKATGYLELSNWPEVAPDPSVRNVEVIELAKEWTPAGKAKQENSAKKFYSESEEEEDSSDSSSDSESESGSESGEQGESGEEGDSNEDSSEDSSSEQDSESGRESGLENKRTAKRNSKAKGKSDSEDGEKENEKSKTSDSSNDESSSIEDSSSDSESESEPESESESRRVTKEKEKKTKQDRTPLTKDVSLLDLDDFNPVSTPVALPTPALSPSLMADLEGLHLSTSSSVISVSTPAFVPTKTHVLLHRMSGKGLAAHYFFPRQPCIFGDKMVSIQITLNNTTDRKIENIHIGEKKLPIGMKMHVFNPIDSLEPEGSITVSMGIDFCDSTQTASFQLCTKDDCFNVNIQPPVGELLLPVAMSEKDFKKEQGVLTGMNETSAVIIAAPQNFTPSVIFQKVVNVANVGAVPSGQDNIHRFAAKTVHSGSLMLVTVELKEGSTAQLIINTEKTVIGSVLLRELKPVLSQG
  back-pyrophosphorylation of myc-AP3B1 by 5[β-32P]InsP7 after immunoprecipitation from IP6K1 knockout HEK293T cells co-expressing IP6K1-V5 and HA-CK2α, with SFB-IDR-1 against without: ~2 fold
